Assay results: publication PMC3155284

Tests used:
[1] = molecular target: EphA2, endogenous (human (endogenous in PC3 and U251)) (UniProt P29317)
[2] = molecular target: EphA2, endogenous (human (endogenous in PC3 and U251)) (UniProt P29317); remark: listed apart in the source

UniProt P29317, sequence (P29317 24-976): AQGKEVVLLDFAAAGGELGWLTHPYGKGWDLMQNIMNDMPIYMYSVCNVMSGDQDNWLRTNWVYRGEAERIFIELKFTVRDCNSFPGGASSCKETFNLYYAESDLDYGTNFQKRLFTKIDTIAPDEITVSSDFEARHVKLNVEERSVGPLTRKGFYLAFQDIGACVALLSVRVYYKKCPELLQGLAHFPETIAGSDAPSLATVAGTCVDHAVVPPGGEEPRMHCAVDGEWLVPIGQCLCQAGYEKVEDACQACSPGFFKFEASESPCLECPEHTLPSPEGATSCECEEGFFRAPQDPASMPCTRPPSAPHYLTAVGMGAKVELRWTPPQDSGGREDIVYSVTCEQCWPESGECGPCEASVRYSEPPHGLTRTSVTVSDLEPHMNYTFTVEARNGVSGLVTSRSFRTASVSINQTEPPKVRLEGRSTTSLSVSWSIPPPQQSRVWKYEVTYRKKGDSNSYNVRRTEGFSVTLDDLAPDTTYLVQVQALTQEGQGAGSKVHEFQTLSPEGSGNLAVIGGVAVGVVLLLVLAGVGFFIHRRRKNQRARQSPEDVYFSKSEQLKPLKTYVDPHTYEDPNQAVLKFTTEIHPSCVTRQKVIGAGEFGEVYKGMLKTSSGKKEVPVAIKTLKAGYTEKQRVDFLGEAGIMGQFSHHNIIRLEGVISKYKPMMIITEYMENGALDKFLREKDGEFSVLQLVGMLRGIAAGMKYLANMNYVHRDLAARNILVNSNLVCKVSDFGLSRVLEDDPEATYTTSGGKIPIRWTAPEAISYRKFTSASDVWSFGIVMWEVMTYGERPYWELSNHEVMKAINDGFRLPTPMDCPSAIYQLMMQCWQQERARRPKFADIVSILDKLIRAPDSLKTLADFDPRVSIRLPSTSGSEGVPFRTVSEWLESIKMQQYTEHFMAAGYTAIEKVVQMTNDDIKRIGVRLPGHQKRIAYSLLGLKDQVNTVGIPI

- rounding of PC3 cells after a brief exposure to ephrin A1-Fc [1]: 90%
- inhibition of U251 cell migration in Boyden chambers by ligand [2]: 50%
Substance: ephrin A1-Fc (from UniProt P20827 19-182) (Fc fusion)
